# T1: integrin alphaVbeta5 (human, UniProt P06756)
# T1 chain 1: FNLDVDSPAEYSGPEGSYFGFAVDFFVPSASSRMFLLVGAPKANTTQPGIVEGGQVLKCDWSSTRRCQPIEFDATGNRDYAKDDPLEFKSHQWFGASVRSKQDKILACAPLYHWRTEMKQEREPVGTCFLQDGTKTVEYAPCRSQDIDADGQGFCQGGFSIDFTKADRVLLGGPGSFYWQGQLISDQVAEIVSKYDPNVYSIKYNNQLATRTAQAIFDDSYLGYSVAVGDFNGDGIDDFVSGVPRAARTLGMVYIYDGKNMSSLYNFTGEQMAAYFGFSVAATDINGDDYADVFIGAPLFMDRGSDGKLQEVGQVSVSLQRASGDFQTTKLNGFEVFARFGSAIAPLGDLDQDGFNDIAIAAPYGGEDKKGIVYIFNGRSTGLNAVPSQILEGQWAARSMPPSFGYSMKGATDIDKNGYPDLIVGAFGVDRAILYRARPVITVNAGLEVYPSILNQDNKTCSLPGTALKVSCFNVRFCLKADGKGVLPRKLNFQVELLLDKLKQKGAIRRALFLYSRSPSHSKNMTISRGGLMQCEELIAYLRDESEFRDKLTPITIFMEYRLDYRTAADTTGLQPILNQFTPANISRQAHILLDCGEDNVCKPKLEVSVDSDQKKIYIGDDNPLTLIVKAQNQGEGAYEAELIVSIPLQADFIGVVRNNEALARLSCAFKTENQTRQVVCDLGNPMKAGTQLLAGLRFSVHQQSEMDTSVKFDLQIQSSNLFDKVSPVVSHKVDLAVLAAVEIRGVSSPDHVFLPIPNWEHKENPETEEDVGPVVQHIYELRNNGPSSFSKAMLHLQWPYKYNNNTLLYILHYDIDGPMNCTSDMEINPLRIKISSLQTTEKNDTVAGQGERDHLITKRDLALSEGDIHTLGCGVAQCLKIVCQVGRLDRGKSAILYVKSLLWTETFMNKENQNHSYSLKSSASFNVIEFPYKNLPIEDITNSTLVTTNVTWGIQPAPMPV
# T1 chain 2: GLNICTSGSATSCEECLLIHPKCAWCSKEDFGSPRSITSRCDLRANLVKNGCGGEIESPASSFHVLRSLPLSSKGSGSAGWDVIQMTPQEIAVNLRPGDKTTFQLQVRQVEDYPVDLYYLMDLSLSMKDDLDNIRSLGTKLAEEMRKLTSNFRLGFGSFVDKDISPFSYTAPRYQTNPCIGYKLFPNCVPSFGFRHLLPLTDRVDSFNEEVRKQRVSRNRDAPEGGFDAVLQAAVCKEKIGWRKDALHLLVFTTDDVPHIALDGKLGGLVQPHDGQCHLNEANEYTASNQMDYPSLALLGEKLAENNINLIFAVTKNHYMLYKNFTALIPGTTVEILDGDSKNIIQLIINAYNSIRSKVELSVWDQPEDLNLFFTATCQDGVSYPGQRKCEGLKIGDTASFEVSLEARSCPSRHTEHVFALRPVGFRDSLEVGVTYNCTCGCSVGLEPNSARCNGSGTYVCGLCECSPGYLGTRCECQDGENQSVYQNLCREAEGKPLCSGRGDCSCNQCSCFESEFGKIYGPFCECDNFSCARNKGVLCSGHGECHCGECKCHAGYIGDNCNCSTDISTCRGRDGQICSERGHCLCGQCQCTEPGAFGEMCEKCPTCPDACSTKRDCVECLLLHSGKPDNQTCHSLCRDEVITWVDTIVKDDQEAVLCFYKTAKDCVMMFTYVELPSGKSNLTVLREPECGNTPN
# Key:
# [1] = target: integrin alphaIIbbeta3 (human, UniProt P08514); test: ELISA
# [2] = target: T1, integrin alphaVbeta5; test: ELISA
binder,measurement,setting,value
"Vitaxin (antibody, V domains shown) VH: QVQLVESGGGVVQPGRSLRLSCAASGFTFSSYDMSWVRQAPGKGLEWVAKVSSGGGSTYYLDTVQGRFTISRDNSKNTLYLQMNSLRAEDTAVYYCARHNYGSFAYWGQGTTVTVSS VL: EIVLTQSPATLSLSPGERATLSCQASQSISNHLHWYQQRPGQAPRLLIKYRSQSISGIPARFSGSGSGTDFTLTISSLEPEDFAVYYCQQSGSWPHTFGGGTKVEIK",binding result,[1],no binding
same,binding result,[2],no binding

# Reference: patent US20090023900 (published 2009)
